Substitutions are numbered along the chain they refer to.

What is called Kd is the constant that tells how readily two partners part at equilibrium. The term koff denotes the rate constant with which the complex falls apart. What is called kon is the rate constant with which the complex forms.

The labels stand for the following.
B1: Clone 31 (VH5Vκ2), humanised variant of clone #28, human IgG1 (antibody, V domains shown)
VH: QVQLQESGPGLVKPSETLSLTCTVSGFSLNNYDMSWVRQAPGKGLEWIGTVSTTYRRYYASWAKGRFTISRDNSKNTLDLQMTSLTAEDTATYFCAASGIWGRGTLVTVSS
VL: AQVLTQSPSTLSASVGDRVTITCQSSQRVYSNYLAWYQQKPGQPPKRLIFLASTLESGVPSRFSGSGSGTEFTLTISSLQPDDFATYYCAGTYTGSIWAFGGGTKVEIK
notes: also called VH5VK2; VH5Vk2
B2: Clone 28 (VH4Vκ4), humanised variant of clone #28, human IgG1 (antibody, V domains shown)
VH: B1 VH with R71K, N73T, K75S, N76T, L78V
VL: B1 VL with A1D, Q2I, V3Q, L4M
notes: also called VH4VK4; VH4Vk4
B3: Clone 27 (VH4Vκ2), humanised variant of clone #28, human IgG1 (antibody, V domains shown)
VH: B1 VH with R71K, N73T, K75S, N76T, L78V
VL: B1 VL
notes: also called VH4VK2; VH4Vk2
B4: Clone 32 (VH5Vκ4), humanised variant of clone #28, human IgG1 (antibody, V domains shown)
VH: B1 VH
VL: B1 VL with A1D, Q2I, V3Q, L4M
notes: also called VH5VK4; VH5Vk4
B5: Clone #28 VH0VK0 chimeric human IgG1 (rabbit VH and VK of Clone 1) (antibody, V domains shown)
VH: QSLEESGGGLVKPGGTLTLTCTVSGFSLNNYDMSWVRQAPGKGLEWIGTVSTTYRRYYASWAKGRFTISKTSSTTVDLKMTSLTTEDTATYFCAASGIWGPGTLVTVSL
VL: AQVLTQTTSPVSAAVGGTVTINCQSSQRVYSNYLAWYQQKPGQPPKRLIFLASTLESGVPSRFSGSGSGTQFTLTISDLECDDAATYYCAGTYTGSIWAFGGGTEVVVK
notes: also called VH0Vκ0; #28 VH0κ0
B6: Clone 17 (VH1Vκ5), humanised variant of clone #28, human IgG1 (antibody, V domains shown)
VH: B5 VH with E4Q, G14S, G15E, T18S, T85A, P101R, L109S
VL: B1 VL with A1D, Q2I, V3Q, L4M, Y30S, N32S
notes: also called VH1VK5
B7: Clone 19 (VH2Vκ2), humanised variant of clone #28, human IgG1 (antibody, V domains shown)
VH: B5 VH with E4Q, G8P, G14S, G15E, T18S, K79Q, T85A, P101R, L109S
VL: B1 VL
notes: also called VH2VK2
B8: Clone 21 (VH2Vκ5), humanised variant of clone #28, human IgG1 (antibody, V domains shown)
VH: B5 VH with E4Q, G8P, G14S, G15E, T18S, K79Q, T85A, P101R, L109S
VL: B1 VL with A1D, Q2I, V3Q, L4M, Y30S, N32S
notes: also called VH2VK5
B9: Clone 18 (VH2Vκ1), humanised variant of clone #28, human IgG1 (antibody, V domains shown)
VH: B5 VH with E4Q, G8P, G14S, G15E, T18S, K79Q, T85A, P101R, L109S
VL: B1 VL with P8T, T10P, P81C, K105E, E107V
notes: also called VH2VK1
B10: Clone 20 (VH2Vκ4), humanised variant of clone #28, human IgG1 (antibody, V domains shown)
VH: B5 VH with E4Q, G8P, G14S, G15E, T18S, K79Q, T85A, P101R, L109S
VL: B1 VL with A1D, Q2I, V3Q, L4M
notes: also called VH2VK4
B11: Clone 16 (VH1Vκ4), humanised variant of clone #28, human IgG1 (antibody, V domains shown)
VH: B5 VH with E4Q, G14S, G15E, T18S, T85A, P101R, L109S
VL: B1 VL with A1D, Q2I, V3Q, L4M
notes: also called VH1VK4

T2 sequence (P10636 other isoform, or with tags, fused parts or gaps limits assumed): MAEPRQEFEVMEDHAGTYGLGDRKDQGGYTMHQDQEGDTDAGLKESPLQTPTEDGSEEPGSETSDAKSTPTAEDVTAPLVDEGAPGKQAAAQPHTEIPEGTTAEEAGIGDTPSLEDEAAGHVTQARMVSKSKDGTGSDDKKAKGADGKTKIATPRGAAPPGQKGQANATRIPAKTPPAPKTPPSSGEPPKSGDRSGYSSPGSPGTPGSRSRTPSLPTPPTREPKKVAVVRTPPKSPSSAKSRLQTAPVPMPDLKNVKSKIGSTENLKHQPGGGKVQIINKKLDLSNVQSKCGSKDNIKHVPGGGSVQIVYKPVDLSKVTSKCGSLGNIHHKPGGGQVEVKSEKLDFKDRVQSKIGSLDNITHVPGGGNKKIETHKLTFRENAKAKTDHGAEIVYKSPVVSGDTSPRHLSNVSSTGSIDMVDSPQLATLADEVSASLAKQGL
full length pHrodo-labelled aggregated (P301S) 2N4R tau, sequence (P10636 other isoform, or with tags, fused parts or gaps P301S P301S): as the sequence (P10636 other isoform, or with tags, fused parts or gaps limits assumed) above, with P301S counted along it

The first assay has as its target full length pHrodo-labelled aggregated (P301S) 2N4R tau (human, UniProt P10636 1-758, labelled with pHrodo Red Maleimide). Description: cell-based or functional assay.
Consider B1, for which the “increase of uptake of aggregated tau into human iPSC-derived microglia” value (shortened to “increase”) was found to be 133 % increase, the “inhibition of uptake of aggregated tau into human iPSC-derived astrocytes” value is 27.8 % inhibition and the “inhibition of uptake of aggregated tau into human iPSC-derived neurons” value is 57.2 % inhibition.
On to B2, for which the “increase” value came out at 246 % increase, the “inhibition of uptake of aggregated tau into human iPSC-derived astrocytes” value came out at 29.1 % inhibition and the “inhibition of uptake of aggregated tau into human iPSC-derived neurons” value was determined as 58.7 % inhibition.
Consider B3, for which the “increase” value came out at 179 % increase and the “inhibition of uptake of aggregated tau into human iPSC-derived neurons” value was determined as 58.7 % inhibition.
With B4, the “increase” value came out at 243 % increase, the “inhibition of uptake of aggregated tau into human iPSC-derived astrocytes” value is 45.7 % inhibition and the “inhibition of uptake of aggregated tau into human iPSC-derived neurons” value was found to be 41.3 % inhibition.

For the next assay, the target named is full length pHrodo-labelled monomeric (P301S) 2N4R tau (human, UniProt P10636 1-758, labelled with pHrodo Red Maleimide). Description: cell-based or functional assay.
full length pHrodo-labelled monomeric (P301S) 2N4R tau, sequence (P10636 other isoform, or with tags, fused parts or gaps P301S P301S): as the sequence (P10636 other isoform, or with tags, fused parts or gaps limits assumed) above, with P301S counted along it
For the molecule B1, the “inhibition of uptake of monomeric tau into human iPSC-derived astrocytes” value was 26.7 % inhibition and the “inhibition of uptake of monomeric tau into human iPSC-derived neurons” value was found to be 57.3 % inhibition.
The like results for B2 were, in that order, 42 % inhibition and 61.5 % inhibition.
Take B3: the “inhibition of uptake of monomeric tau into human iPSC-derived neurons” value worked out at 66.5 % inhibition.
In the case of B4, the “inhibition of uptake of monomeric tau into human iPSC-derived astrocytes” value came out at 45.7 % inhibition and the “inhibition of uptake of monomeric tau into human iPSC-derived neurons” value was 64.2 % inhibition.

The target of the next assay is T1, Bovine serum albumin (bovine, UniProt P02769 25-607).
T1 construct: Negative control antigen in ELISA; also called BSA
T1 sequence (P02769 25-607 limits assumed): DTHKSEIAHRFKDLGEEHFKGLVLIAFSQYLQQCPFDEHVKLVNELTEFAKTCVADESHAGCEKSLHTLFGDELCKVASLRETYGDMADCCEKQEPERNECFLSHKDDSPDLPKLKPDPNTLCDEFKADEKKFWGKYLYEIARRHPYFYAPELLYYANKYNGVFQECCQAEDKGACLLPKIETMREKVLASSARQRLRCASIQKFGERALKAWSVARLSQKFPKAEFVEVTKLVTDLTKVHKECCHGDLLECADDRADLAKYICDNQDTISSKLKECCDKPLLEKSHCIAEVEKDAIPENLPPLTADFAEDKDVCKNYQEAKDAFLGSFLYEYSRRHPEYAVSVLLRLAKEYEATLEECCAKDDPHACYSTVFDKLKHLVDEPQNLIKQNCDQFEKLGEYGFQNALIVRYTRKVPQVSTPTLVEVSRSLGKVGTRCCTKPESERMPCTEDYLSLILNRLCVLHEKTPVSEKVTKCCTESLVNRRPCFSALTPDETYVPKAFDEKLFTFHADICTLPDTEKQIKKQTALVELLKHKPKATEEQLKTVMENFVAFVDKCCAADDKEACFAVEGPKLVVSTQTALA
Description: ELISA on 1% BSA, HEK supernatant, anti-human IgG-HRP, n=1. As to the method: Antigen was removed from wells and the plates were then blocked for 1 hour at RT with 5% dried milk in 1×TBS. Blocking solution was removed, HEK293 cell supernatant (1:100 in 1% BSA/1×TBS) was added to relevant wells, and plates were incubated for 1 hour at RT with gentle shaking. Plates were then washed four times with TBS/0.1% Tween (TBST). Goat-anti-human IgG-HRP antibody (ThermoFisher Scientific, Waltham, Mass. USA), diluted 1:2000 in 5% milk/TBS, was added to each well and plates were incubated for 1 hour at RT with gentle shaking before being washed four times with TBST. 3,3′,5,5′-tetramethylbenzidine (TMB) ELISA solution was added to each well and plates were incubated for 15 mins at RT. An equal volume of 1 M sulfuric acid was added to each well and OD was measured at 450 nm.
A general note: An ELISA detects its analyte on a solid surface through an enzyme-linked reagent.
For the molecule B5, the binding result is recorded as “no binding (tested: supernatant 1:100)”.
The same measure, in the same setting: in the case of B1 it was “no binding (tested: supernatant 1:100)”.
Still for that read-out and setting: in the case of B6 it was “no binding (tested: supernatant 1:100)”; in that of B7, “no binding (tested: supernatant 1:100)”.
The same measure, in the same setting: in the case of B8 it was “no binding (tested: supernatant 1:100)”.
As for B2, the binding result was “no binding (tested: supernatant 1:100)”.
On the same count and under the same terms, the value for B9 was “no binding (tested: supernatant 1:100)”; that for B10 was “no binding (tested: supernatant 1:100)”; that for B3 was “no binding (tested: supernatant 1:100)”.
On to B11, for which the binding result was “no binding (tested: supernatant 1:100)”.
In the case of B4, the binding result is “no binding (tested: supernatant 1:100)”.

The next assay has as its target T2, full length recombinant human 2N4R tau (amino acids 1-441) (human, UniProt P10636 1-758).
T2 construct: Bought (rPeptide); recombinant, non-phosphorylated; also called recombinant tau
Description: SPR Biacore MCK, purified IgG on Protein A, tau analyte. As to the method: Biacore multi-cycle kinetics (MCK) analyses for antibody binding to recombinant (non-phosphorylated) 2N4R tau are summarised in FIG. 23 and Table 8. […] Slight variations in RMAX are considered likely to be due to differences in ligand capture and not reflective of significant variation in antibody binding characteristics.
24.2 Assessment of antibody binding to tau (Biacore MCK analysis): Binding of anti-tau hIgG1 to full length recombinant 2N4R tau (Rpeptide; SEQ ID NO: 2) was assessed using the Biacore T200 (GE Healthcare, Chicago, Ill., USA) running Biacore T200 Evaluation Software V2.0.1. hIgG1 were immobilised on a Protein A capture sensor chip in running buffer (HBS-EP+ buffer containing 1 mg/mL BSA) at 25° C. captured to ˜50 RU at 10 μL/min. […] Curves were compared to a reference cell that was mock immobilized (no antibody present).
For orientation: In SPR one partner is held on a chip, and binding of the other changes the refractive index at the surface.
Regarding B5, the Kd amounted to 24.9 nM, the “Relative KD” value stood at 1 fold vs VH0VK0, the koff came out at 0.00249 s⁻¹ and the kon came out at 99900 M⁻¹ s⁻¹.
In the case of B1, the Kd came out at 34.8 nM, the “Relative KD” value was 1.4 fold vs VH0VK0, the koff worked out at 0.00321 s⁻¹ and the kon was 92400 M⁻¹ s⁻¹.
On to B2, for which the Kd came to 26.9 nM, the “Relative KD” value is 1.08 fold vs VH0VK0, the koff is 0.00186 s⁻¹ and the kon came to 69200 M⁻¹ s⁻¹.
The like results for B3 were, in that order, 44 nM, 1.77 fold vs VH0VK0, 0.0026 s⁻¹ and 59100 M⁻¹ s⁻¹.
In the same order, the values of B4 are 33.6 nM, 1.35 fold vs VH0VK0, 0.00239 s⁻¹ and 71100 M⁻¹ s⁻¹.

The target of the next assay is T2, full length recombinant human 2N4R tau …. Description: SPR Biacore SCK, IgG on Protein A, tau analyte. How it is done: 23.5 Assessment of antibody binding to tau (Biacore SCK analysis): Binding of anti-tau hIgG1 to full length recombinant 2N4R tau (Rpeptide; SEQ ID NO: 2) was assessed using the Biacore T200 (GE Healthcare, Chicago, Ill., USA) running Biacore T200 Evaluation Software V2.0.1. hIgG1 were immobilised on a Protein A capture sensor chip in running buffer (HBS-EP+ buffer containing 1 mg/mL BSA) at 25° C. captured to ˜50 RU at 10 μL/min. For single-cycle kinetics experiments, recombinant 2N4R tau was flowed at concentrations ranging from 5 nM to 40 nM (2-fold dilutions) with an association time of 150 s and a dissociation time of 200 s. Curves were compared to a reference cell that was mock immobilized (no antibody present).
Data were analysed using Langmuir (1:1) binding analysis, describing a 1:1 interaction at the surface: […]
With B5, the Kd turned out to be 45.3 nM, the “Relative KD” value was found to be 1 fold vs VH0VK0, the koff worked out at 0.00342 s⁻¹ and the kon turned out to be 75400 M⁻¹ s⁻¹.
In the case of B1, the Kd is 96.5 nM, the “Relative KD” value came to 2.13 fold vs VH0VK0, the koff stood at 0.00362 s⁻¹ and the kon amounted to 37500 M⁻¹ s⁻¹.
In the same order, the values of B6 are 41.1 nM, 0.91 fold vs VH0VK0, 0.00428 s⁻¹ and 104000 M⁻¹ s⁻¹.
For the molecule B7, the Kd stood at 67.3 nM, the “Relative KD” value was determined as 1.49 fold vs VH0VK0, the koff worked out at 0.00324 s⁻¹ and the kon is 48100 M⁻¹ s⁻¹.
Take B8: the Kd came to 136 nM, the “Relative KD” value was determined as 3 fold vs VH0VK0, the koff came out at 0.00523 s⁻¹ and the kon is 38500 M⁻¹ s⁻¹.
For B2, the Kd was found to be 49 nM, the “Relative KD” value came to 1.08 fold vs VH0VK0, the koff is 0.00234 s⁻¹ and the on-rate constant (kon) is 47700 M⁻¹ s⁻¹.
The like results for B9 were, in that order, 49.2 nM, 1.09 fold vs VH0VK0, 0.0033 s⁻¹ and 67100 M⁻¹ s⁻¹.
Regarding B10, the equilibrium dissociation constant (Kd) came out at 38 nM, the “Relative KD” value is 0.84 fold vs VH0VK0, the koff was found to be 0.00234 s⁻¹ and the kon was 61500 M⁻¹ s⁻¹.
For the molecule B3, the Kd came out at 68.6 nM, the “Relative KD” value amounted to 1.51 fold vs VH0VK0, the koff was determined as 0.00308 s⁻¹ and the kon is 44800 M⁻¹ s⁻¹.
In the same order, the values of B11 are 31.2 nM, 0.69 fold vs VH0VK0, 0.00207 s⁻¹ and 66300 M⁻¹ s⁻¹.
The like results for B4 were, in that order, 67.3 nM, 1.49 fold vs VH0VK0, 0.00239 s⁻¹ and 35500 M⁻¹ s⁻¹.

The record behind these values is US20220265819A1 (GEN2 NEUROSCIENCE, published 2022).
